Experimental data taken from article PMC11299580, “Discovery of novel disease-causing mutation in SSBP1 and its correction using adenine base editor to improve mitochondrial function” (Molecular Therapy. Nucleic Acids, 2023).

Target: T1, SSBP1 Arg91Gln R91Q (Homo sapiens) (UniProt Q04837)
T1 sequence: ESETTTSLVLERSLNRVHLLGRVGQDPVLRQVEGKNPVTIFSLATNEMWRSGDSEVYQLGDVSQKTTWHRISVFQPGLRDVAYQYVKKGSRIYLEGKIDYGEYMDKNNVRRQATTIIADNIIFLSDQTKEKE
Test: EMSA
Details: 50 mM Tris pH 7.5, 150 mM NaCl, 10% glycerol, 30 min at room temperature; 2% agarose gel in 1x TBE

Sequence: GGACTATTTATTCAATATATTTAAGAACTAATTCCAGCTGAGCGCCGG [EMSA ssDNA probe]
- Kd: 20.2 nM
